Measurements from patent US20260176306A1.

B1: H7.HK2 (antibody, V domains shown)
VH: QVQLQGSGPGLLRPSETLSLTCSVSGVSINSYYWSWVRQPPGKALEWIGYIYYSGNTNYNPSLESRVTISVDRSKNQFSLKMTSVTAADTARYFCARQGIFGDYGSDYWGPGTLVTVSS
VL: DIVMTQSPLSLPVTPGEPASISCRSNQSLQHSNGYVHLDWYRQKPGQSPHLLIYLGFNRASGVPDRFSGGGSGTDFTLKISRVEAEDVGVYYCMQGLQTPFTFGPGTTVDLK
B2: H7.HK1 (antibody, V domains shown)
VH: QVQLQESGPGLVKPSETLSLTCSVSGGSINSYYWTWIRQPPGKGLEWVGYIYHSGSTSYNPSLKSRITISVAPSKNHFSLELTSMTAADTAVYYCARLGGHGDYGSDYWGQGTLVTVSS
VL: DIVMTQSPVSLPVTPGEPASISCNSSQSLLHSNGYAHLDWYLQKPGQSPKLMIYLGLNRAFGVPDRFSGSGSGTDFTLKISRVEAEDVGVYYCMQALQTPFTFGPGTRVDIK
B3: H7.HK4 (antibody, V domains shown)
VH: QVQLQESGPGLVKPSETLSLTCTVSGGSVRSASYAWSWIRQPPGKGLEWIGDIYYSGTTNYNPSLKSRVTLSVDTAKNRFSLRLRSVTAADTAVYHCARERYYYGSSGDFDYWGQGTLVTVSS
VL: DIQMTQSPSSLSASVGDRVTITCRASQGIRNYLAWFQQKPGQAPKSLIFAASSLHTGVPSRFSGSGSGTDFTLTISSLQPEDFATYYCQHYNSYPPTFGQGTKLEIK

What was measured:
[1] = target: H7 hemagglutinin of A/Hong Kong/125/2017 H7N9 on pseudo virus (Influenza A virus A/Hong Kong/125/2017 H7N9); assay: cell-based or functional assay
[2] = target: H7 hemagglutinin of A/Shanghai/4664T/2013 H7N9 on pseudo virus (Influenza A virus A/Shanghai/4664T/2013 H7N9); assay: cell-based or functional assay

Binder	neutralization IC50, H7N9 2017 pseudo virus, MDCK cells, luciferase [1] [mg/L]	neutralization, H7N9 2013 pseudo virus, MDCK cells, luciferase [2] [µg/mL]
B1	0.03	
B2	0.03	
B3		> 10
